This passage reports Km results from US20040087506A1, “Methods of modulating FabH activity” (SmithKline Beecham Corporation, priority 1999, published 2004).

The term Km denotes the substrate concentration at which the rate is half of its maximum.

Substrate in the data set: CC(=O)SCCNC(=O)CCNC(=O)[C@H](O)C(C)(C)COP(=O)(O)OP(=O)(O)OC[C@H]1O[C@@H](n2cnc3c(N)ncnc32)[C@H](O)[C@@H]1OP(=O)(O)O
Nature of the data set: purified protein, by the assay type. Particulars: other: substrate of FabH; ping-pong mechanism, acetyl-CoA first substrate, malonyl-ACP second.

B1: E. coli FabH (Escherichia coli K-12) (protein)
chain: MYTKIIGTGSYLPEQVRTNADLEKMVDTSDEWIVTRTGIRERHIAAPNETVSTMGFEAATRAIEMAGIEKDQIGLIVVATTSATHAFPSAACQIQSMLGIKGCPAFDVAAACAGFTYALSVADQYVKSGAVKYALVVGSDVLARTCDPTDRGTIIIFGDGAGAAVLAASEEPGIISTHLHADGSYGELLTLPNADRVNPENSIHLTMAGNEVFKVAVTELAHIVDETLAANNLDRSQLDWLVPHQANLRIISATAKKLGMSMDNVVVTLDRHGNTSAASVPCALDEAVRDGRIKPGQLVLLEAFGGGFTWGSALVRF
Consider B1, for which the Km is 34 µM.
